Reference: article PMC7020240

Molecular target: C-FLuc-MESA MEC construct (wild type) (P. falciparum)
Experiment: split reporter

N-FLuc-ANK1 fragment 3 (amino acids 823 - 1375) (domain or fragment)
fold increase of relative luciferase activity: 200 fold
